T1: commercial carboxypeptidase inhibitor (CPI) from Potato tuber (UniProt P01075)
T1 sequence: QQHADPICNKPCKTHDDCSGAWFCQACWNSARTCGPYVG

T2: trypsin inhibitor T9253 from chicken egg white, P01005
T2 chain: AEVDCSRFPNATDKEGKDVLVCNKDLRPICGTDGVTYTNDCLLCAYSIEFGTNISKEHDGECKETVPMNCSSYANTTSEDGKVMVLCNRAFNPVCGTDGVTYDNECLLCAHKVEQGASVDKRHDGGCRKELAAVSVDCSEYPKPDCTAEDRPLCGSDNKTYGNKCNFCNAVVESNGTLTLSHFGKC

T3: trypsin inhibitor, T9128 from soybean, P01070
T3 chain: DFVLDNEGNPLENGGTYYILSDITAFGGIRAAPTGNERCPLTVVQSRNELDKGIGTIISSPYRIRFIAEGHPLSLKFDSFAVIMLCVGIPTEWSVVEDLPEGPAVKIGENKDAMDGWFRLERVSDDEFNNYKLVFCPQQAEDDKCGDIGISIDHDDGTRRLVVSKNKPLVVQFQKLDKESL


Key:
[1] = target: T1, commercial carboxypeptidase inhibitor (CPI) from Potato tuber
[2] = target: T2, trypsin inhibitor T9253 from chicken …
[3] = target: T3, trypsin inhibitor, T9128 from soybean, …

Row | Molecule | carboxypeptidase activity (Hippuryl-L-phenylalanine substrate, slope of kinetic absorbance) [1] | trypsin activity (conversion of L-BAPA, slope of kinetic absorbance) [2] | trypsin activity (conversion of L-BAPA, slope of kinetic absorbance) [3]
1 | carboxypeptidase in porcine pancreatin | carboxypeptidase activity, which was efficiently suppressed by a commercial carboxypeptidase inhibitor (CPI) from Potato tuber | – | –
2 | trypsin in porcine pancreatin (protein) IVGGYTCAANSIPYQVSLNSGSHFCGGSLINSQWVVSAAHCYKSRIQVRLGEHNIDVLEGNEQFINAAKIITHPNFNGNTLDNDIMLIKLSSPATLNSRVATVSLPRSCAAAGTECLISGWGNTKSSGSSYPSLLQCLKAPVLSDSSCKSSYPGQITGNMICVGFLEGGKDSCQGDSGGPVVCNGQLQGIVSWGYGCAQKNKPGVYTKVCNYVNWIQQTIAAN | – | Intestinal and pancreatic trypsin activity was inhibited in a dose-dependent manner by two specific trypsin inhibitors from soybean and chicken egg white, respectively | Intestinal and pancreatic trypsin activity was inhibited in a dose-dependent manner by two specific trypsin inhibitors from soybean and chicken egg white, respectively

Reference: patent US20230042729A1, “PEPTIDE CONSTRUCTS AND COMPOSITIONS” (DIET4LIFE APS, priority 2019, published 2023)
